27 molecules from paper PMC10786891, “Massively parallel profiling of RNA-targeting CRISPR-Cas13d” can be followed below.

First the molecules themselves.
T1: EsCas13d, nuclease-dead (Eubacterium siraeum, UniProt B0MS50, R295A;H300A;R849A;H854A)
T1 sequence: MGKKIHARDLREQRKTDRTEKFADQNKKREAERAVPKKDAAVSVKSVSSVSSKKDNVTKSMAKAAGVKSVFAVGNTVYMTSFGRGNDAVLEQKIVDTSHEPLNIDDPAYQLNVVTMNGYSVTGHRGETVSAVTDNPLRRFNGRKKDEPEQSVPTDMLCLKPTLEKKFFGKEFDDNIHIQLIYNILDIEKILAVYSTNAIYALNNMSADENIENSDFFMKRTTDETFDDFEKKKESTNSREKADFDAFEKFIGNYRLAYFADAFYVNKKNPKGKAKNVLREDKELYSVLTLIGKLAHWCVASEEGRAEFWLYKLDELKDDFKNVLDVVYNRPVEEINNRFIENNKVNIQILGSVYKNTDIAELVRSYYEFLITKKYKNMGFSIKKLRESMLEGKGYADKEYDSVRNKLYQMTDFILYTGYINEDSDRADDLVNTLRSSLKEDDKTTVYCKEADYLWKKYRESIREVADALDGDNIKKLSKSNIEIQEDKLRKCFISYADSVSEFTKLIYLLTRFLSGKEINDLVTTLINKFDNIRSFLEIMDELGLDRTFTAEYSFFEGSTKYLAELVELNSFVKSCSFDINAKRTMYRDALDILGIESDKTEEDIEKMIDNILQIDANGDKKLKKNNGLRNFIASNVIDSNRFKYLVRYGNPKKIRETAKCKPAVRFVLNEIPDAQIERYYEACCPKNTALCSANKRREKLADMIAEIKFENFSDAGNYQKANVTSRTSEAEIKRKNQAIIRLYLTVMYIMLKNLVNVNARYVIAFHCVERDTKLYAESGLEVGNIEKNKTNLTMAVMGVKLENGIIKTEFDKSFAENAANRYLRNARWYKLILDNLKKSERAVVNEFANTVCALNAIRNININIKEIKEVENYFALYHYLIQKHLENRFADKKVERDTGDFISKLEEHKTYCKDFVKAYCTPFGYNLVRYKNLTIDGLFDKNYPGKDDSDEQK

B1: target 1 insU 3' of 21,insA 3' of 11 (mixed)
RNA 1: CACCCGUGCAAAAAUGCAGGGGUCUAAAACUGAGCGGAUAACCUCUCUAUGG
RNA 2: GGGAAUGGAUCCACAUCUACGAAUUCGUACCUAUAGAGAGGUAUAUCCGCUCACCGAGAUCGGAAGAGCACACGU
B2: target 1 A1U,A16U (mixed)
RNA 1: CACCCGUGCAAAAAUGCAGGGGUCUAAAACUGAGCGGAUAACCUCUCUAUGG
RNA 2: GGGAAUGGAUCCACAUCUACGAAUUCGUACCAUAGUGAGGUUAUCCGCUCUCCGAGAUCGGAAGAGCACACGU
B3: target 1 U10A,G12C (mixed)
RNA 1: CACCCGUGCAAAAAUGCAGGGGUCUAAAACUGAGCGGAUAACCUCUCUAUGG
RNA 2: GGGAAUGGAUCCACAUCUACGAAUUCGUACCAUAGAGAGCUAAUCCGCUCACCGAGAUCGGAAGAGCACACGU
B4: target 1 insU 3' of 17,insG 3' of 1 (mixed)
RNA 1: CACCCGUGCAAAAAUGCAGGGGUCUAAAACUGAGCGGAUAACCUCUCUAUGG
RNA 2: GGGAAUGGAUCCACAUCUACGAAUUCGUACCAUAGUAGAGGUUAUCCGCUCAGCCGAGAUCGGAAGAGCACACGU
B5: target 2 MT 5'PFS CAU 3'PFS CGC (mixed)
RNA 1: CACCCGUGCAAAAUUGCAGGGGUCUAAAACCUUCUCCAAAUUGUUUCAUCCU
RNA 2: GGGAAUGGAUCCACAUCUACGAAUUCCAUAGGAUGAAACAAUUUGGAGAAGCGCAGAUCGGAAGAGCACACGU
B6: target 2 MT 5'PFS UUA 3'PFS CUU (mixed)
RNA 1: CACCCGUGCAAAAUUGCAGGGGUCUAAAACCUUCUCCAAAUUGUUUCAUCCU
RNA 2: GGGAAUGGAUCCACAUCUACGAAUUCUUAAGGAUGAAACAAUUUGGAGAAGCUUAGAUCGGAAGAGCACACGU
B7: target 2 MT 5'PFS GAA 3'PFS UGU (mixed)
RNA 1: CACCCGUGCAAAAUUGCAGGGGUCUAAAACCUUCUCCAAAUUGUUUCAUCCU
RNA 2: GGGAAUGGAUCCACAUCUACGAAUUCGAAAGGAUGAAACAAUUUGGAGAAGUGUAGAUCGGAAGAGCACACGU
B8: target 2 MT 5'PFS UCU 3'PFS CCG (mixed)
RNA 1: CACCCGUGCAAAAUUGCAGGGGUCUAAAACCUUCUCCAAAUUGUUUCAUCCU
RNA 2: GGGAAUGGAUCCACAUCUACGAAUUCUCUAGGAUGAAACAAUUUGGAGAAGCCGAGAUCGGAAGAGCACACGU
B9: target 2 MT 5'PFS AGA 3'PFS UUU (mixed)
RNA 1: CACCCGUGCAAAAUUGCAGGGGUCUAAAACCUUCUCCAAAUUGUUUCAUCCU
RNA 2: GGGAAUGGAUCCACAUCUACGAAUUCAGAAGGAUGAAACAAUUUGGAGAAGUUUAGAUCGGAAGAGCACACGU
B10: target 2 MT 5'PFS UUA 3'PFS CUC (mixed)
RNA 1: CACCCGUGCAAAAUUGCAGGGGUCUAAAACCUUCUCCAAAUUGUUUCAUCCU
RNA 2: GGGAAUGGAUCCACAUCUACGAAUUCUUAAGGAUGAAACAAUUUGGAGAAGCUCAGAUCGGAAGAGCACACGU
B11: target 2 MT 5'PFS CGC 3'PFS CUU (mixed)
RNA 1: CACCCGUGCAAAAUUGCAGGGGUCUAAAACCUUCUCCAAAUUGUUUCAUCCU
RNA 2: GGGAAUGGAUCCACAUCUACGAAUUCCGCAGGAUGAAACAAUUUGGAGAAGCUUAGAUCGGAAGAGCACACGU
B12: target 2 MT 5'PFS AAU 3'PFS AUA (mixed)
RNA 1: CACCCGUGCAAAAUUGCAGGGGUCUAAAACCUUCUCCAAAUUGUUUCAUCCU
RNA 2: GGGAAUGGAUCCACAUCUACGAAUUCAAUAGGAUGAAACAAUUUGGAGAAGAUAAGAUCGGAAGAGCACACGU
B13: target 2 MT 5'PFS AGA 3'PFS UUG (mixed)
RNA 1: CACCCGUGCAAAAUUGCAGGGGUCUAAAACCUUCUCCAAAUUGUUUCAUCCU
RNA 2: GGGAAUGGAUCCACAUCUACGAAUUCAGAAGGAUGAAACAAUUUGGAGAAGUUGAGAUCGGAAGAGCACACGU
B14: target 2 MT 5'PFS UUA 3'PFS CUA (mixed)
RNA 1: CACCCGUGCAAAAUUGCAGGGGUCUAAAACCUUCUCCAAAUUGUUUCAUCCU
RNA 2: GGGAAUGGAUCCACAUCUACGAAUUCUUAAGGAUGAAACAAUUUGGAGAAGCUAAGAUCGGAAGAGCACACGU
B15: target 2 MT 5'PFS AGA 3'PFS UUC (mixed)
RNA 1: CACCCGUGCAAAAUUGCAGGGGUCUAAAACCUUCUCCAAAUUGUUUCAUCCU
RNA 2: GGGAAUGGAUCCACAUCUACGAAUUCAGAAGGAUGAAACAAUUUGGAGAAGUUCAGAUCGGAAGAGCACACGU
B16: target 2 MT 5'PFS UUC 3'PFS UUC (mixed)
RNA 1: CACCCGUGCAAAAUUGCAGGGGUCUAAAACCUUCUCCAAAUUGUUUCAUCCU
RNA 2: GGGAAUGGAUCCACAUCUACGAAUUCUUCAGGAUGAAACAAUUUGGAGAAGUUCAGAUCGGAAGAGCACACGU
B17: target 2 MT 5'PFS AAU 3'PFS AUC (mixed)
RNA 1: CACCCGUGCAAAAUUGCAGGGGUCUAAAACCUUCUCCAAAUUGUUUCAUCCU
RNA 2: GGGAAUGGAUCCACAUCUACGAAUUCAAUAGGAUGAAACAAUUUGGAGAAGAUCAGAUCGGAAGAGCACACGU
B18: target 2 MT 5'PFS AAU 3'PFS AUU (mixed)
RNA 1: CACCCGUGCAAAAUUGCAGGGGUCUAAAACCUUCUCCAAAUUGUUUCAUCCU
RNA 2: GGGAAUGGAUCCACAUCUACGAAUUCAAUAGGAUGAAACAAUUUGGAGAAGAUUAGAUCGGAAGAGCACACGU
B19: target 2 MT 5'PFS GAA 3'PFS UGC (mixed)
RNA 1: CACCCGUGCAAAAUUGCAGGGGUCUAAAACCUUCUCCAAAUUGUUUCAUCCU
RNA 2: GGGAAUGGAUCCACAUCUACGAAUUCGAAAGGAUGAAACAAUUUGGAGAAGUGCAGAUCGGAAGAGCACACGU
B20: target 2 MT 5'PFS GUG 3'PFS UGC (mixed)
RNA 1: CACCCGUGCAAAAUUGCAGGGGUCUAAAACCUUCUCCAAAUUGUUUCAUCCU
RNA 2: GGGAAUGGAUCCACAUCUACGAAUUCGUGAGGAUGAAACAAUUUGGAGAAGUGCAGAUCGGAAGAGCACACGU
B21: target 2 MT 5'PFS AGG 3'PFS ACC (mixed)
RNA 1: CACCCGUGCAAAAUUGCAGGGGUCUAAAACCUUCUCCAAAUUGUUUCAUCCU
RNA 2: GGGAAUGGAUCCACAUCUACGAAUUCAGGAGGAUGAAACAAUUUGGAGAAGACCAGAUCGGAAGAGCACACGU
B22: target 2 MT 5'PFS AGU 3'PFS CUG (mixed)
RNA 1: CACCCGUGCAAAAUUGCAGGGGUCUAAAACCUUCUCCAAAUUGUUUCAUCCU
RNA 2: GGGAAUGGAUCCACAUCUACGAAUUCAGUAGGAUGAAACAAUUUGGAGAAGCUGAGAUCGGAAGAGCACACGU
B23: target 2 MT 5'PFS AUU 3'PFS UUU (mixed)
RNA 1: CACCCGUGCAAAAUUGCAGGGGUCUAAAACCUUCUCCAAAUUGUUUCAUCCU
RNA 2: GGGAAUGGAUCCACAUCUACGAAUUCAUUAGGAUGAAACAAUUUGGAGAAGUUUAGAUCGGAAGAGCACACGU
B24: target 2 MT 5'PFS AGA 3'PFS UUA (mixed)
RNA 1: CACCCGUGCAAAAUUGCAGGGGUCUAAAACCUUCUCCAAAUUGUUUCAUCCU
RNA 2: GGGAAUGGAUCCACAUCUACGAAUUCAGAAGGAUGAAACAAUUUGGAGAAGUUAAGAUCGGAAGAGCACACGU
B25: target 2 MT 5'PFS CCA 3'PFS CCU (mixed)
RNA 1: CACCCGUGCAAAAUUGCAGGGGUCUAAAACCUUCUCCAAAUUGUUUCAUCCU
RNA 2: GGGAAUGGAUCCACAUCUACGAAUUCCCAAGGAUGAAACAAUUUGGAGAAGCCUAGAUCGGAAGAGCACACGU
B26: target 2 MT 5'PFS AGG 3'PFS ACU (mixed)
RNA 1: CACCCGUGCAAAAUUGCAGGGGUCUAAAACCUUCUCCAAAUUGUUUCAUCCU
RNA 2: GGGAAUGGAUCCACAUCUACGAAUUCAGGAGGAUGAAACAAUUUGGAGAAGACUAGAUCGGAAGAGCACACGU
B27: target 2 MT 5'PFS UUA 3'PFS CUG (mixed)
RNA 1: CACCCGUGCAAAAUUGCAGGGGUCUAAAACCUUCUCCAAAUUGUUUCAUCCU
RNA 2: GGGAAUGGAUCCACAUCUACGAAUUCUUAAGGAUGAAACAAUUUGGAGAAGCUGAGAUCGGAAGAGCACACGU

For the data set, the target named is T1, EsCas13d, nuclease-dead. The data set is described as follows: crRNA (strand 1, pre-loaded); Mg2+; 40 mM Tris-HCl pH 7.5, 150 mM NaCl, 6 mM MgCl2, 1 mM DTT, 0.1% Tween-20, 0.2 mg/ml BSA; 25 C; 10 min per concentration, then washed. As to conditions: tags: His6-TwinStrep-SUMO cleaved; N-terminal SNAP kept (SNAP-Surface 488); label: 3' end held by stalled T7 RNA polymerase.
A word on the Kd: it is the concentration at which binding is half-saturated. With B1, the Kd was 49 ± 5 nM.
Regarding B2, the Kd is 70 ± 13 nM.
Consider B3, for which the Kd amounted to 8.6 ± 1 nM.
Take B4: the dissociation constant Kd stood at 17.7 ± 2.1 nM.
Turning to B5, the Kd amounted to 3.4 ± 0.6 nM.
The molecule B6 registered a Kd of 36 ± 6 nM.
The figure for B7 is 18 ± 2.7 nM.
Turning to B8, the Kd was found to be 17.4 ± 3 nM.
B9 yielded a Kd of 13.2 ± 2.6 nM.
Molecule B10 gave a Kd of 55 ± 16 nM.
In the case of B11, the Kd came to 14 ± 4 nM.
The figure for B12 is 4.5 ± 0.9 nM; for B13 it is 6.1 ± 1 nM.
B14 registered a Kd of 20.9 ± 3.3 nM.
Consider B15, for which the affinity, expressed as Kd, was 18 ± 5 nM.
As to B16, the Kd is 31 ± 8 nM.
As for B17, the Kd amounted to 6.3 ± 0.7 nM.
For the molecule B18, binding was characterised by a dissociation constant (Kd) of 5.3 ± 0.6 nM.
In turn, B19 had a dissociation constant (Kd) of 13.2 ± 2.6 nM.
B20 came in with a Kd of 17.1 ± 2.5 nM.
B21 had a Kd of 15 ± 6 nM.
In the case of B22, the Kd was 11.4 ± 1.5 nM.
Molecule B23 yielded a Kd of 32 ± 7 nM.
Regarding B24, the affinity, expressed as Kd, was 11.7 ± 2.2 nM.
Turning to B25, the affinity, expressed as Kd, was 4.9 ± 0.6 nM.
The molecule B26 gave a Kd of 8.1 ± 1.8 nM.
B27 displayed a Kd of 24 ± 2.7 nM.
